From the DeepSol protein solubility set come the findings set out here.

The data set in a line: soluble on expression in E. coli; label from the status in PepcDB or PDB records.
For the sequence “MATKLQDGNTPCLAATPSEPRPTVLVFDSGVGGLSVYDEIRHLLPDLHYIYAFDNVAFPYGEKSEAFIVERVVAIVTAVQERYPLALAVVACNTASTVSLPALREKFDFPVVGVVPAIKPAARLTANGIVGLLATRGTVKRSYTHELIARFANECQIEMLGSAEMVELAEAKLHGEDVSLDALKRILRPWLRMKEPPDTVVLGCTHFPLLQEELLQVLPEGTRLVDSGAAIARRTAWLLEHEAPDAKSADANIAFCMAMTPGAEQLLPVLQRYGFETLEKLAVLG”, the “soluble on expression in E. coli” value was “soluble”.
On to “MGSDKIHHHHHHMQFCSSDEFASKTMIKWPWKVQESAHQTALPWQEALSIPLLTCLTEQEQSKLVTLAERFLQQKRLVPLQGFELDSLRSCRIALLFCLPVLELGLEWLDGFHEVLIYPAPFVVDDEWEDDIGLVHNQRIVQSGQSWQQGPIVLNWLDIQDSFDASGFNLIIHEVAHKLDTRNGDRASGVPFIPLREVAGWEHDLHAAMNNIQEEIELVGENAASIDAYAASDPAECFAVLSEYFFSAPELFAPRFPSLWQRFCQFYQQDPLQRLHHANDTDSFSATNVH”, for which the “soluble on expression in E. coli” value is recorded as “not soluble”.
Take “MERPLARNEVTRLGPDSKFHHAGLRRGLSPATLRKLDAISRLRVFPRDAVVVPQGGALEYVGNVVRGVLRMERLLSDGRSQIVGLLVPTDMFGRVFSERSDYSVEAATEVTLCCFERHAFEALVRTCPDLEHAVLLAVLDELDAAREWITLRAGPTVAARLATYLLMLCRRWPHQTSELTQDAKRIVVNVPIARNDLAHYLGTTVESISRAVQAFSRDGIISILTPLRFEILDLPALIALSDNEEFDAHALLEGLREEQRVSP”: the “soluble on expression in E. coli” value is reported as “not soluble”.
To “MSENLHTIIHHVDFFPLRIRVFRNGDMFDHGRILVVTRKQFKHWIVFLDALTDLLRTATAVRRLFTTQGIPVHHFDDLETNGEYVAVETGPFVNVPYGQARFTLRLKRYNPIIRAPELIPTFLHSAESMDIYLKKEGYGTITGLPYPFDGILSRSPSASNIQIKHLQSHHIPPLKIGGSMEHLNELGTASWLGKNEKWMMGERVKLETQSQTLAQKSEKDEQIPRLDIKEVDGGSTTSEFMRNGEKSKSTTKLPRLLNSNRSFRREPVSAQKPPSEEPRSTSENLPPIDLKSIQISQNSQSTSQKKDSDTISIKTEEEVISILKPEKTTTESIVSSKISRKNAPKDDDEVRFHRSYQVTETTYTTRNSDETDRRKPENVEKTVESKNDRSVQDKSEKIEKKVPEKLSKPQKTETTKSKERAKWADQGNTTLKREKSIEKSTRQGKIDKSIEKLIDKSIDNTEKLSSQKPKIDMAKGELRKFDVDINEIPIRFEGPMVNKSRINTSRIVTSRSTTNLFVDEIVNEDELDDVIERAQLWDLNRRRQNMRQQHTQTSGSLCRSISAPRRRVVLFDPDFD” belongs “not soluble”; to “MGSDKIHHHHHHMSTPIPSLADAPPVLCVHGIGKTYAEPVLADVSLELRAGEVLALTGENGAGKSTLSKIVGGLVTPTTGSMTLGGAAYAPASRKDAEALGVRMVMQELNLLPTLSVAENLFLNRLPRNLVGWIDRARLRENARHAMAQVGLDAIDPDTLVGTLGIGHQQMVEIARNLIGDCRVLILDEPTAMLTAREVDLLFEQVERLKAHGVALVYISHRLEELKRIARRAAVLRDGRLVHVDEMANLSTDRLVTLMVGRDIGDRIDLGERRIGEVAFKVSGMTREPVVRDVSFEVRAGEIFGISGLIGAGRTELMRLIYGADHADAGSVSLGRGGAAPEPVTIASPSDAVQHGIALITEDRKGEGLLLTQPIAANISLGHLRAVSNKGVVDGRREAALARRQIDAMRIRSAGPSQPVSELSGGNQQKVVIGRWLARDCTVLLFDEPTRGIDVGAKFDIYALMGALAREGRALVVVSSDLRELMAICDRIGVMSAGRMTGLFERGNWTQDALLAAAFAGYAKRDDLLHEPIEPDAKAPDESKLVEY”, “not soluble”.
“GAMTKPRFTTGLVYDTLMLKHQCTAGSSSSHPEHAGRIQSIWSRLQETGLRGKCEAIRGRKATLEELQTVHSEAHTLLYGTNPLNRQKLDSKKLLGSLASVFVRLPCGGVGVDSDTIWNEVHSAGAARLAVGCVVELVFKVATGELKNGFAVVRPPGHHAEESTPMGFCYFNSVAVAAKLLQQRLSVSKILIVDWDVHHGNGTQQAFYSDPSVLYMSLHRYDDGNFFPGSGAPDEVGTGPGVGFNVNMAFTGGLDPPMGDAEYLAAFRTVVMPIASEFAPDVVLVSSGFDAVEGHPTPLGGYNLSARCFGYLTKQLMGLAGGRIVLALEGGYDLTAICDASEACVSALLGNELDPLPEKVLQQRPNANAVRSMEKVMEIHSKYWRCLQRTTSTAGRSLIEAQTCENEEAETVT”: the “soluble on expression in E. coli” value is listed as “soluble”.
To “MGSDKIHHHHHHMTRIASHRGGTLEFGDSTPHGFTATAAMALEEVEFDLHPTADGAIVVHHDPTLDATTDMTGAIVDMTLAKVKTATIRYGAGSHPMTLEELCALYVDSHVNFRCEIKPGVDGLPYEGFVALVIAGLERHSMLERTTFSSFLLASMDELWKATTRPRLWLVSPSVLQQLGPGAVIETAIAHSIHEIGVHIDTADAGLMAQVQAAGLDFGCWAAHTPSQITKALDLGVKVFTTDRPTLAIALRTEHRMEASV” belongs “not soluble”; to “MAYSYTEKKRIRKDFSKLPDVMDVPYLLAIQLDSYREFLQAGATKEQFRDVGLHAAFKSVFPIISYSGNAALEYVGYRLGEPAFDVKECVLRGVTFAVPLRVKVRLIIFDRESSNKAIKDIKEQEVYMGEIPLMTENGTFIINGTERVIVSQLHRSPGVFFDHDRGKTHSSGKLLYSARIIPYRGSWLDFEFDPKDCVFVRIDRRRKLPASVLLRALGYSTEEILNAFYATNVFHIKGETLNLELVPQRLRGEVASIDIKDGSGKVIVEQGRRITARHINQLEKAGVSQLEVPFDYLIGRTIAKAIVHPATGEIIAECNTELTLDLLAKVAKAQVVRIETLYTNDIDCGPFISDTLKIDNTSNQLEALVEIYRMMRPGEPPTKEAAETLFGNLFFSAERYDLSAVGRMKFNRRIGRTEIEGPGVLSKEDIIDVLKTLVDIRNGKGIVDDIDHLGNRRVRCVGEMAENQFRVGLVRVERAVKERLSMAESEGLMPQDLINAKPVAAAIKEFFGSSQLSQFMDQNNPLSEITHKRRVSALGPGGLTRERAGFEVRDVHPTHYGRVCPIETPEGPNIGLINSLATYARTNKYGFLESPYRVVKDSLVTDEIVFLSAIEEADHVIAQASATLNEKGQLVDELVAVRHLNEFTVKAPEDVTLMDVSPKQVVSVAASLIPFLEHDDANRALMGSNMQRQAVPTLRADKPLVGTGMERNVARDSGVCVVARRGGVIDSVDASRVVVRVADDEVETGEAGVDIYNLTKYTRSNQNTCINQRPLVSKGDVVARGDILADGPSTDMGELALGQNMRVAFMPWNGFNFEDSICLSERVVQEDRFTTIHIQELTCVARDTKLGPEEITADIPNVGEAALNKLDEAGIVYVGAEVQAGDILVGKVTPKGETQLTPEEKLLRAIFGEKASDVKDTSLRVPTGTKGTVIDVQVFTRDGVERDSRALSIEKMQLDQIRKDLNEEFRIVEGATFERLRAALVGAKAEGGPALKKGTEITDDYLDGLERGQWFKLRMADDALNEQLEKAQAYISDRRQLLDDKFEDKKRKLQQGDDLAPGVLKIVKVYLAIKRRIQPGDKMAGRHGNKGVVSVIMPVEDMPHDANGTPVDIVLNPLGVPSRMNVGQILETHLGLAAKGLGEKINRMLEEQRKVAELRKFLHEIYNEIGGREENLDELGDNEILALAKNLRGGVPMATPVFDGAKEREIKAMLKLADLPESGQMRLFDGRTGNQFERPTTVGYMYMLKLNHLVDDKMHARSTGSYSLVTQQPLGGKAQFGGQRFGEMEVWALEAYGAAYTLQEMLTVKSDDVNGRTKMYKNIVDGDHRMEAGMPESFNVLIKEIRSLG”, “not soluble”.
To “MSDVATLESFRLADSFLPVGTYTVSYGLEQFIQDDRVEDATDLEGLLSTYLRRQIGPAELVALRAAHAAATDGDIEAICHADQRLSAVTLAAEFRESAQQSGDRLLSLQTELRDEALLNRYAERVDADDAPGNYAVVLGVATGLADVAVREACLLCCHGFVTGLLGAAQRLLSLGHTDAQRILNDLQPVMTAAVDDSADRGIDEMTPFAPLVDVLAAEHERAERRLFASLEHHHHHH” belongs “not soluble”; to “MSKIEIFEAAGCCATSSVVVSDEAVKWNASAEWAKKHGVNIQRYSLAKNPQQFLNTPVIRAFLNTSGMESLPATLLDGQLVMAGKLPSREDIARWAG”, “soluble”; to “MSLHPVSISLSSYGADLVRSRGQASFLPLLAMAGAQRVELREELFAGPPDTEALTAAIQLQGLECVFSSPLELWREDGQLNPELEPTLRRAEACGAGWLKVSLGLLPEQPDLAALGRRLARHGLQLLVENDQTPQGGRIEVLERFFRLAERQQLDLAMTFDIGNWRWQEQAADEAALRLGRYVGYVHCKAVIRNRDGKLVAVPPSAADLQYWQRLLQHFPEGVARAIEYPLQGDDLLSLSRRHIAALARLGQPQEERQHG”, “soluble”.
To “MGSDKIHHHHHHMGIIATSFIPFRGLSVSNLSETNFSETSNANVDPQEIAKFEKMAATWWDPEGEFKPIHKLNPLRLNYIDQAVGGLFGKRVLDVGCGGGILSESMARLGARVDGLDMGAEPLDVAKLHALEMGVEINYIQDTAEHHRDSHQGQYDVVTCMEMLEHVPDPASVIKACSDMVKPGGYVFFSTINRNIRAYVETVIGAEYLLKMLPVGTHDHKKYIKPAELIGMADAVDLECVDATGITYNPLTEIFRYTKSLDVNYMIATVKQDD” belongs “not soluble”.
Take “MSLYELQKVIKMDTETEDVPMFTVQNLPREDIYKTIGEMAIIVPMKNEKLHLVDGVLKAIPHKSPIIIVSNSKRKGPNRFKQEVDLVKHFCNLTHSKVIMIHQRDPGLAEAFRETGYEDILDEKGLVRSGKGEGMLIGIMLAKAIGAKYVGFVDADNYIPGAVNEYVKDYAAGFLMSESEYAMVRLHWRHKPKVSRGTLYFKKWGRVSEITNRYLNQLISEKTAFETTIMVTGNAGEHAMTMKLAEILPFSTGYSIEPYEIVYLLERFGSWENVEEFQDVFDQGIEIFQIETLNPHFHEDKGQEHVKEMVLLSLTTIYHSKLASERLKRQILEDLRMHGIIKEDEEPPKPRVMRPIKDIDIKKWMKTLESNQETLLRFDLEGHHHHHH”: the “soluble on expression in E. coli” value was “not soluble”.
To “MAHHHHHHMLSEEEQATLLKYYSTVKLHETQMDQLAQAYWAATREERGEIAKVYAHTFVDPTFVQRLIFFHDYRMSLTAAGAGLSSSTGAAVGTGSSFAGQQSGSESANSPLMAGPPSSFMAESPTTAANHAPRRTHAQHLLRSTIQEHFPKLTGPGPYALQFGCVQSEKEREEVIELYSSQFLHPDPPELHRIVALPSSFSTRTRKRISGSYSWYLRCLATQELVCAVTVTVHQQETIRFAEMPLFATGVGYKKNGFGRLLNAALLAWCAEVGLEFIMISADVQAIPFWRHLGYRAMTRGEKNRIDFFYQHDCCKFKGAETMIGYCNVDRGNGSLSGGVGRRAFHSGGSTEVLHRSVRQVLAQLPRFVVEGPAKLPTE” belongs “soluble”.
With “MEGNGSVDMFSEVLENQFLQAAKLVENHLDSEIQKLDQIGEDELELLKEKRLAALRKAQQQKQEWLSKGHGEYREIGSERDFFQEVKESEKVVCHFYRDTTFRCKILDRHLAILAKKHLETKFLKLNVEKAPFLCERLRIKVIPTLALLRDGKTQDYVVGFTDLGNTDDFTTETLEWRLGCSDVINYSGNLMEPPFQSQKKFGTNFTKLEKKTIRGKKYDSDSDDD” the entry was “soluble”; with “MRGQNRRGYRNIEGRLSLSSHSSHSSPRQTHVTNLRPAEIKVVQDVVDGCYVATDDVLNLSNFSKNTEFVERDMLMCLTKTRVMSVVLQHIGYKYPRISGISFSNNRLCHLDHLSSLSSISKFLKFLDLSHNQISSGEELKKLGTIPVETVFFEGNPVCEKFVQCAEYANFIQKTFPKCSNLDGMEVEPKPDHNRIEQIIPFRNGYYGSDEVRTLVEEFIITYYKIYDGADGQQTRKQLLDAYDTNNSTFTHTVVCLWDPIKFVMYPDSESYRMYLRTSHNVLNQEYFAANRASRISHGAMDIVVALSRLPATIHLMDTFVVDVFLVSATLLGFTLHGTFRDGPSAIKPENTEEHDNYFTRTFMVAPRGEGKVAIVSDQLFISSMSKRRGDQYRMLVETATDIDQ”, “not soluble”.
